According to patent US20230183379A1:

Biological target: human IL-6 (human) (UniProt P05231)
Assay: cell-based or functional assay

Chain of human IL-6 (human) (P05231 30-212 limits assumed): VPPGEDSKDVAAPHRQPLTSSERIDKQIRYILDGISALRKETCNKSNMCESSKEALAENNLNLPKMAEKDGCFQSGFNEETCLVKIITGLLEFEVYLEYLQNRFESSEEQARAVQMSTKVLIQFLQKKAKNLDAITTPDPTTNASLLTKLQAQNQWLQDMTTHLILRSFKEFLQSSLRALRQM

B1: BE8 (mouse monoclonal anti-IL6 neutralizing antibody) (antibody, from another filing, V domains shown)
VH: QVTLKESGPGILKPSQTLSLTCSFSGFSLSTSGMGVGWIRQPSGKGLEWLAHIWWDDDKYYNPSLKSQLTISKDTSRNQVFLKITSVDTADTATYYCARSYDDYLYYALDYWGQGTSVTVSS
VL: DIVMTQSPATLSVTPGDRVSLSCRASQSISDYLHWYQQKSHESPRLLIKSVSQSISGIPSRFSGSGSGSDFTLSINSVEPEDVGVYYCQNGHSFPLTFGAGTKLELK
Binder B1 has an inhibition of growth of XG6 cells in 40 pM IL-6, IC50 of 3 nM and an inhibition of growth of XG7 cells in 40 pM IL-6, IC50 of 6 nM.
